For experiment [1], the target named is SARS-CoV-1 S protein expressed on ExpiCHO cells (SARS-CoV-1, UniProt P59594 14-1255). The experiment is described as follows: flow.
Experiment [2] addresses SARS-CoV-1 RBD (Sino Biological) (SARS-CoV-1, UniProt P59594 306-527). Kind of experiment: BLI. For orientation: BLI is a label-free optical method that tracks binding on a fibre tip over time.
In experiment [3] the target is SARS-CoV-2 Spike (S) protein, strain BetaCoV/Wuhan-Hu-1/2019, expressed on ExpiCHO cells (UniProt P0DTC2 14-1273). The experiment is described as follows: flow.

B1: SARS-CoV-2 S310 mAb (antibody, V domains shown)
VH: QVQLVQSGAELKKPGSSVKVSCKASGGTFNSYSFNWVRQAPGQGLEWLGGIIPVLGTSNYAQKFQGRVAVTADEFTTTAYMELSSLRSEDTAVYYCATRTYDSSGYRPYYYGLDVWGQGTPVTVSS
VL: QSALTQPASVSGSPGQSITISCTGTSSDVGSYNLVSWYQQRPGKAPELMIYEVTKRPSGLSNRFSGSKSGNTASLTISGLQAEDEADYYCCSYAGSDTVIFGGGTKVTVL
Molecule B1 came in with an EC50 in experiment [1] of 254 ng/mL.

B2: SARS-CoV-2 S303 mAb (antibody, V domains shown)
VH: EVQLVESGGGLVKPGGSLRLSCAASGFTFLTYSMNWVRQTPGKRLQWVSAISGSGGATYYADSVKGRFTISRDNSKNTLYLQMNTVTADDTAIYFCARERDDIFPMGLNAFDIWGQGAMVIVSS
VL: DIQMTQSPSTLSASVGDRVTITCRASQSISNWLAWYQQKPGKAPKLLIYKASSLESGVPSRFSGSGSGTEFTLTISSLQPDDSATYYCQQYDTYSWTFGQGTKVEIK
For the molecule B2, a half-maximal response in experiment [1] (EC50) required 1.06 ng/mL. The affinity in experiment [2], expressed as Kd, was 0.869 nM.

B3: SARS-CoV-2 S306 mAb (antibody, V domains shown)
VH: QVQLVQSGAEVKKPGASVKVSCKASTYTFTSFGISWVRQAPGQGLEWMGWITTYSGDTNYAQKFQGRVTMTTDTSTNTAYMELRSLRSDDTAVYYCASDYFDSSGYYHSFDYWGQGTLVTVSS
VL: EIVLTQSPDTLSLSPGERATLSCRASQSVSSYLAWYQQRPGQAPRLLIYDASKRATGIPARFSGSGSGTDFTLTISSLEPEDFAVYYCQQRSNWPPGCSFGQGTKVEIK
Turning to B3, the EC50 worked out at 1.42 ng/mL in experiment [3] and 20.8 ng/mL in experiment [1].

B4: SARS-CoV-2 S304 mAb (antibody, V domains shown)
VH: EVQLVESGGGLVQPGGSLRLSCAASGFTFSSYDMHWVRQTTGKGLEWVSTIGTAGDTYYPDSVKGRFTISREDAKNSLYLQMNSLRAGDTAVYYCARGDSSGYYYYFDYWGQGTLLTVSS
VL: DIQMTQSPSSLSAAVGDRVTITCRASQSIGSYLNWYQQKPGKAPKLLIYAASSLQSGVPSRFSGSGSGTDFTLTISSLQPEDFAIYYCQQSYVSPTYTFGPGTKVDIK
B4 showed an EC50 in experiment [1] of 11.4 ng/mL.

B5: SARS-CoV-2 S315 mAb (antibody, V domains shown)
VH: EVQLVESGGGLVQPGGSLRLSCAASGFTFSNYWMTWVRQAPGKGLEWVANIKQDGSEKYYVDSVKGRFTISRDNAKNSLYLQMNSLRAEDTAVYYCARDLWWNDQAHYYGMDVWGQGTTVTVSS
VL: SYELTQPPSVSVSPGQTARITCSGDAFPNQYAYWYQQKPGQAPVMLIYKDSERPSGIPERFFGSSSGTTVTLTIRGVQAEDEADYYCQSADSSGTVFGGGTKLTVL
In experiment [1], B5 had an EC50 of 7.59 ng/mL.

In general, EC50 refers to the concentration giving half of the maximal effect. Read a low EC50 as higher potency in that assay. The Kd is the equilibrium constant for the complex coming apart. A high value points to a looser complex.

(Values after patent US20210261650A1 (published 2021).)
